Test results taken from article PMC7274780.

Target: Salmonella typhimurium oxaloacetate decarboxylase sodium pump (StOAD) β subunit (Salmonella typhimurium) (UniProt Q03031)
Assay: cryo-EM structure; purified StOAD βγ sub-complex in 20 mM Tris pH 7.5, 100 mM sodium chloride, 2 mM DTT, 0.02% DDM; C3 symmetry imposed; 3.88 Å

## Salmonella typhimurium oxaloacetate decarboxylase sodium pump (StOAD) β subunit (from UniProt Q03031 1-433) (natural protein)
  stoichiometry N: 3
